Reference: the DeepSol protein solubility set

assay: soluble on expression in E. coli; label from the status in PepcDB or PDB records

| Sequence | soluble on expression in E. coli |
| --- | --- |
| MGSDKIHHHHHHMTNWLPDLTGGAGPLYQRLADSVEAGIDQGVIGAGTKLPPQRDLAYDIGTTVGTVGRAYQLLRERGLVSGEVGRGTYVLGRRADGVKPEAPDVSVEGTRYVDAPQDKLRFDSTAAPDVGQGAVVADVLSRTAQDHPHEISSYTRDFPGRWYEAGARWLARNSFRPAADGIVPTLGTHAAVMAAIAALTTPGDYVAFEHLTYSQISRSAGLIGRRTALVASDDEGLDPADFERVCAQKHPRMIFLMPTAQNPTLTTLSAGRREAIARVAREYNVILIEDDLYGHLTDDPTPLLAEYAPERTIVAGGLSKSVAAGIRGGWLSCPPAYRHRIRVAHKMMTGGMPFLLAEVNTRLVLSGQASDIRKRCIAEISARIAIVRETLAGFAFKSHDKVPFVWLTLPDPWLSGTFKNACLEHGVLIDDEDEFKAGRSEQVFHGVRFGTSQPRQRGDVANGVAVIRRLLDEGRAGYDSFS | not soluble |
| MPSFDIVSEITLHEVRNAVENANRVLSTRYDFRGVEAVIELNEKNETIKITTESDFQLEQLIEILIGSCIKRGIEHSSLDIPAESEHHGKLYSKEIKLKQGIETEMAKKITKLVKDSKIKVQTQIQGEQVRVTGKSRDDLQAVIQLVKSAELGQPFQFNNFRD | soluble |
| MGSDKIHHHHHHMEMLEEHRCFEGWQQRWRHDSSTLNCPMTFSIFLPPPRDHTPPPVLYWLSGLTCNDENFTTKAGAQRVAAELGIVLVMPDTSPRGEKVANDDGYDLGQGAGFYLNATQPPWATHYRMYDYLRDELPALVQSQFNVSDRCAISGHSMGGHGALIMALKNPGKYTSVSAFAPIVNPCSVPWGIKAFSSYLGEDKNAWLEWDSCALMYASNAQDAIPTLIDQGDNDQFLADQLQPAVLAEAARQKAWPMTLRIQPGYDHSYYFIASFIEDHLRFHAQYLLK | not soluble |
| MNQKDTRKETLEFNKLQKRLRRNVGNAITDYNMIEEGDVVMACISGGKDSFAMLDILLNLQKAAPIKFEVVAVNLDQKQPGFPEHILPEYFETLNIPYYIVDKDTYSVVKEKVPEGKTTCGLCSRLRRGTLYSFAEKIGATKLALGHHMDDIVETMFLNMFHGSRLKAMPPKLRSDDGRNVVIRPLTYCREKDLIKYAEHKDFPIIPCNLCGSQENLQRQAIKAMLIDWDKKTPGRVEAIFKSIQNVSPSQLADRELFDFVNLPLDRDGSREEYEFSEAVVSSTNIDESLFIDVTNI | soluble |
| MSLEKLTYAEVVNVIDGQVLGGRAGLHKTLNKFVIGAMELDAMMRYTAAGNLLIVGNRINAHRQALEAGAAVLVTGGFNTDDSIVQLADELELPILSTSYDTFTVAAMINRAIYDQLIKKEIVLVEDILTPADRTVYLSPKDKLEKWYEKNFETGHGRFPVVDDQMKIHGILTSKDIAGHDRNASIEKVMTKNPVTVIGKTSVASAAQMMVWEGIEVLPVTDGHQKLIGMISRQDVLKALQMIQKEGHHHHHH | soluble |
| IKVQIEKQLSERILLIDGGMGTMIQGYKFEEEDYRGERFNKWHCDLKGNNDLLVLSQPQIIRDIHEAYLEAGADILETNTFNATTIAMADYDMESLSEEINFEAAKLAREVADKWTEKTPNKPRYVAGVLGPTNRTCSISPDVNDPGFRNVSFDELVEAYSESTRALIRGGSDLILIETIFDTLNAKACSFAVESVFEELDITLPVMISGTITDASGRTLSGQTTEAFYNALRHVKPISFGLNCALGPDELREYVSDLSRISECYVSAHPNAGLPNAFGEYDLSPEDMAEHVAEWASSGFLNLIGGCCGTTPEHIRQMALVVEGVKPRQLPELPVACRLSGLEPLTIEKDSLFINVGERTNVTGSARF | not soluble |
| MPHPAPNAAAPRVHIIGAGMAGLACAVRLVSHGRAVSLHEAAGQAGGRCRSFVDASLDRLIDNGNHLLLSGNRAVNAFLATIGASDRLDGPERARFPFLDVETGERWCLTPSAGPVPWWLLRADRRIPGTRARDYLEGLKLARASDADRVADLLTPGTPLYRRFWAPLTVGVLNAAPEEAAAALLWPVIKETFGRGEAACRPRMARNGLSDSFVTPALAWLTARGAEIAFNHRLRAIEYGDGRPAALVFSEETPLRLGPADQVVLAVPPAVAAGLLPGLTVPEGSRCIVNAHFRLDHAPEGFADDFEGPLGVIGGTAEWLFVRGDVASVTVSAADALAALDPDEIAARIWRDVALALGLDAAARPPVRIIKEKRATFAQTPDQLCRRPPTRPPGYGLCLAGDWTHTGLPATIEGALRSGEAAADAALHWRFTLEHHHHHH | not soluble |
| MGSDKIHHHHHHMRVGLTLYGSLDEQSGGFRYDRKLVEGLRAAGDTVECIQLPWRDYHRGLLDNGSRKLRQRLDVDVDVMLQDELAHPSLVRTNRALSYPIVSIVHHLRASEPRRLAPLYRAVERRYLGTVQAVVCNSATTRNVVTNLGVDPEDTVVAPPAGDQFDPDIDRATIERRATTEPLQVVFVGNVSPRKGLDTLVDGVAAAAVDIDLTVVGRHVDAAHVTSVQERVREHDLADRVQFAGRLPDGELAKTLRSSHVLAVPSRYEGFGIVYLEGMSFGLPALATRAGGAADIVTDDETGVLVDPDDSAAVARELERFATDRDRLAEMGWAARRNYETHPDWEETVGRVRDLLSDIVQPTEVPA | not soluble |
| MEEYEFLVRVREAGGFDIEHLMDTKPSSCVIGCREFDNNDDYNAHIVLFARMGIHKYNMIQGTNLQLSCVEKYNYRSPRVYSAFYITLIAKDPDACNSLVTFQTRVVEEGFNMTKLSCNIARPKPGPQENAALPRHSVDLEPVKKSELLTHDWIRLYMELAFLKAHLRSPKNPNLSKLVIVMVAIETKDNMEPPSERLKARNAFFYIKYKYHANKGRGPKRRLGHKTPDRIAIVRRTLDKNTGYLTLEFPEPIL | soluble |
| MGHHHHHHSHMLVLRSGLTKALASRTLAPQVCSSFATGPRQYDGTFYEFRTYYLKPSNMNAFMENLKKNIHLRTSYSELVGFWSVEFGGRTNKVFHIWKYDNFAHRAEVRKALANCKEWQEQSIIPNLARIDKQETEITYLIPWSKLEKPPKEGVYELAVFQMKPGGPALWGDAFERAINAHVNLGYTKVVGVFHTEYGELNRVHVLWWNESADSRAAGRHKSHEDPRVVAAVRESVNYLVSQQNMLLIPASFSPLK | not soluble |
| MKSHKMMGGGISMHYITACLKIISDKDLNEIMKEFKKLEEETNKEEGCITFHAYPLEPSERKIMLWEIWENEEAVKIHFTKKHTIDVQKQELTEVEWLMKSNVND | soluble |
| MGSSHHHHHHSSGLVPRGSHMLKQKELIANVKNLTESDERITACMMYGSFTKGEGDQYSDIEFYIFLKHSITSNFDSSNWLFDVAPYLMLYKNEYGTEVVIFDNLIRGEFHFLSEKDMNIIPSFKDSGYIPDTKAMLIYDETGQLENYLSEISGARPNRLTEENANFLLCNFSNLWLMGINVLKRGEYARSLELLSQLQKNTLQLIRMAEKNADNWLNMSKNLEKEISLENYKKFAKTTARLDKVELFEAYKNSLLLVMDLQSHLIEQYNLKVTHDILERLLNYISE | soluble |
| VYNYMVDDTRSQLSIFMDEIAAQLEVDHTGHLSLAAQLSDPRFSRPYSGLYWSASTDSSLERSRSLWDKRIEYKGLDKDAYGARDEKLITLEKALYLPDYDGPIHIIVGIDEEPIKSTLQ | not soluble |
| MAHHHHHHMTVAKKCMVVLQHGSHGTHLDLACLSQYLKAKDPRLIVWESYKNEGMRTDDGVVPCGERLADNLIREIKELCSTPTQSGGDGGREKVVVQMSFVCHSMGGLIVREALPRVWDKVESQKGKLEIEWNMFCTIATPHGGVCQMASTLRYYLGRLISFFYSTSYHDMFLGSDVLTDRLLSPKHLSCLAAFKRRLLVSSINDILVPLMSSGFMLTPSQRGLPGDMLREEQKQLCAFNEREMYDKMRTITEIPKEEWPANKFLAERRIAKTLVQAVGNFDSVVVDLRSPRLEELYEDRKRRTTAWYGANKRSHQAMVCKPPFDTVEEAFGFVSHMVGDEVLATFQE | not soluble |
| MKGEGVIVGILNKNFSLSKGDLDVVSLGEILVDMISTEEVNSLSQSREYTRHFGGSPANIAVNLSRLGKKVALISRLGADAFGNYLLDVLKGEQIITDGIQQDKERRTTIVYVSKSTRTPDWLPYREADMYLQEDDIIFELIKRSKVFHLSTFILSRKPARDTAIKAFNYAREQGKIVCFDPCYRKVLWPEGDDGAGVVEEIISRADFVKPSLDDARHLFGPDSPENYVKRYLELGVKAVILTLGEEGVIASDGEEIIRIPAFSEDAVDVTGAGDAFWSGFICGLLDGYTVKRSIKLGNGVAAFKIRGVGALSPVPSKEDIIKEYNI | soluble |
| MAHAPARCPSARGSGDGEMGKPRNVALITGITGQDGSYLAEFLLEKGYEVHGIVRRSSSFNTGRIEHLYKNPQAHIEGNMKLHYGDLTDSTCLVKIINEVKPTEIYNLGAQSHVKISFDLAEYTADVDGVGTLRLLDAVKTCGLINSVKFYQASTSELYGKVQEIPQKETTPFYPRSPYGAAKLYAYWIVVNFREAYNLFAVNGILFNHESPRRGANFVTRKISRSVAKIYLGQLECFSLGNLDAKRDWGHAKDYVEAMWLMLQNDEPEDFVIATGEVHSVREFVEKSFLHIGKTIVWEGKNENEVGRCKETGKVHVTVDLKYYRPTEVDFLQGDCTKAKQKLNWKPRVAFDELVREMVHADVELMRTNPNA | not soluble |
| MKWDEYVDIFDTDVVSKIIILRNLPINEGWIDINELAEELQLNKKSVKKYVELLKDDITYYVVDNDASLAFEKGHGYRLNLASSQAFQKLYTAIFRDSLTYQVMEDLFWGRFNGIVPATAKYHTSDATIRRLLKGFTEILAPLGLVINKSTWKIEGNEAYLRHFAYTIFMDLIRDTWPFDYIQETEVAQTVQKMMAFFNVEVAETVTRRVKYMVAISKVRSAQGAEYRPSAEQETYLEGNKHYQAFIEEMTATTLFLNKNDLTFVYFFLLANDQFYQDEATAQAILAHFDETEAPVYMLTHLVQHFLLEEIHMTPQLEKIRPQIFYYLFATHLFAELYYVQNVKMYNVFWNKIKEKYPVLLAELIQGLNQLYEQTGNELFTNKEFLALRYSSVLALSNDLIHREQKIVLGLKSGLPVLEEERVKLSIENNFRRFYALEVLRYSEASKEEWQNIDLLLVTSLADVETGHPEIFLFSSELTFEQYNRLNQKIVKINEKRTTSL | not soluble |
| SLSLLIDIVDETGSVSEEMLKEVENLLQFAAEREGVQDQAEVSVTIVSNDDIHQINKEYRGKDAPTDVISFALEEEGEGEIEIVGAEMPPVLGNIIISADRTREQAEEYNHSFKRELGFLAVHGFLHLLGYDHMTKEEEEEMFTKQKELLDAYGLKRS | soluble |
| MGDRGYGGSRSYGGSSGGGSRGGYGGGGRGGGGGGYSGGRGGGYGGGGGGGYGGGGYGGGGRGGGRGGSNGSAGGRLRDVDWSAENLTPIEKDFYHENAAVSRREQYEIDQWVSANQVTLEGRGVPRPVFEFNEAPLPGQIHELLYGKFQKPTVIQSISWPIAMSGRDIISIAKTGSGKTLAFMLPALVHITKQAHRQRGEGPAVLVLLPTRELAQQVQEVSIDFCHSLGLKMTCLFGGASKGPQARDLERGVDIVVATPGRLLDFLDNGTTNMKKCSYLVLDEADRMLDMGFEPQIKKIIGQIRPDRQTLMFSATWPKEVRALASDFQKDAAFLNVGSLELAANHNITQVVDILEEHAKQAKLMELLNHIMNQKECKTIIFVETKRKADELTRAMRRDGWPTLCIHGDKNQGERDWVLQEFKAGKTPIMLATDVAARGLDVDDIKFVINYDYPNNSEDYVHRIGRTGRSDKKGTAYTFFTHTNASKAKDLLKVLDEAKQTVPQALRDMANRSYGGSNSRGRYGGGGFQKRGYGGNDNFAPKRPRYDNGGYGGGSGGGGRW | not soluble |
| MGNFYSLGKKEPVIRLLQITDCHLFSSESECLLGINTTETFQAVIEHIHQTDFAYDAVLATGDLIQDHNPEAYHRFAEMAKQFVKPLFWLEGNHDKQPQMSLYLGKHPHIQPEKQLLAGEKWQILLLNSQVAGAPSGYLSAGQLAWLNSKLAKHLDRYALVVLHHNILPTNSAWLDQHCLKNSEQLAKVLKSYRNVKAILHGHIHQEVDRVWQGYRVLATPSTCIQFKPNCRDFTLDMLPQGWREISLLEDGSIETTVKRLASNQFLPDFQSKGY | not soluble |
